Laboratory results taken from publication doi:10.1101/2025.03.18.643923, “Widely used CaMKII regulatory segment mutations cause tight actinin binding and dendritic spine enlargement in unstimulated neurons” (bioRxiv, 2025).

Molecular target: T1, Human α-actinin-2 EF3-4 (positions 827-894) (human, UniProt P35609 827-894)
T1 construct: α-actinin-2, human, third and fourth EF hands, positions 827-894; also called α-actinin-2 EF hands 3-4; source: E. coli Rosetta pLysS, purified (Ni-NTA, Glutathione Sepharose, Tev cleavage, Superdex 75); not shown: His, N-terminal, cleaved; GST, N-terminal, cleaved
T1 sequence (P35609 827-894): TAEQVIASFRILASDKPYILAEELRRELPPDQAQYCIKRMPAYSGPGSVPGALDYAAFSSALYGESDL
Test: ITC; MicroCal PEAQ, 25 °C, 25 mM HEPES pH 7.5, 150 mM NaCl; syringe 500 μM CaMKIIα peptide, cell 50 μM EF3-4; single site binding model
Settings: both partners purified

B1: CaMKIIα 290-309 peptide WT (peptide, UniProt P11275 290-309, looked up)
peptide: LKKFNARRKLKGAILTTMLA
notes: CaMKIIα regulatory segment, residues 290-309; Probably a synthetic peptide; also called WT CaMKIIα 290-309; N-terminally shifted regulatory segment peptide (WT)
Kd: 3.46 ± 0.08 µM

B2: CaMKIIα 290-309 peptide AA (T305A/T306A) (peptide, UniProt P11275 290-309, looked up)
peptide: LKKFNARRKLKGAILAAMLA
notes: CaMKIIα regulatory segment, residues 290-309; Probably a synthetic peptide; also called AA CaMKIIα 290-309; N-terminally shifted regulatory segment peptide (AA)
Kd: 0.146 ± 0.012 µM

B3: CaMKIIα 294-315 peptide T305A/T306A (peptide, UniProt P11275 294-315, looked up)
peptide: NARRKLKGAILAAMLATRNFSG
notes: Probably a synthetic peptide; also called AA isolated regulatory segment
Kd: 14.7 ± 1.2 µM

B4: CaMKIIα 294-315 peptide T305A (peptide, UniProt P11275 294-315, looked up)
peptide: NARRKLKGAILATMLATRNFSG
notes: Probably a synthetic peptide; also called T305A regulatory segment
Kd: 19.4 ± 0.7 µM

B5: CaMKIIα 294-315 peptide T306A (peptide, UniProt P11275 294-315, looked up)
peptide: NARRKLKGAILTAMLATRNFSG
notes: Probably a synthetic peptide; also called T306A regulatory segment
Kd: 19.8 ± 1.9 µM
